Paper PMC12326332, “Tuning ubiquitin transfer by RING E3 ubiquitin ligases through the linchpin residue” (Life Science Alliance, 2025)

Target: T1, mature human SMAC^56-C (human, UniProt Q9NR28 56-239)
T1 construct: SMAC (DIABLO), mature form starting from Ala56 to the C terminus; expressed as a SUMO fusion in pRSF-DUET1 so that the N terminus starts from Ala56; also called SMAC^56-C,Strep-II; mature SMAC; source: E. coli BL21 (DE3) Rosetta 2 pLysS, purified (His-TRAP, Superdex 75); not shown: SUMO, N-terminal, cleaved
T1 sequence (looked up): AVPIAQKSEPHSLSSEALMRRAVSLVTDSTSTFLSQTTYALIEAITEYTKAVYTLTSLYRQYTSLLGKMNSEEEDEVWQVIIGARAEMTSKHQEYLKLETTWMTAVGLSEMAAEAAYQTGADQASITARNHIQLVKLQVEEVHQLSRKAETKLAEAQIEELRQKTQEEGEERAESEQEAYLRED
Experiment: SEC; gel filtration elution profiles of XIAP-RNF38^WT, SMAC^56-C and the E3/SMAC mixture
Details: both partners purified

binding result: binds
B1: XIAP^145-430-RNF38^389-C (other, UniProt P98170 145-430, looked up)
chain: QVVDISDTIYPRNPAMYSEEARLKSFQNWPDYAHLTPRELASAGLYYTGIGDQVQCFCCGGKLKNWEPCDRAWSEHRRHFPNCFFVLGRNLNIRSESDAVSSDRNFPNSTNLPRNPSMADYEARIFTFGTWIYSVNKEQLARAGFYALGEGDKVKCFHCGGGLTDWKPSEDPWEQHAKWYPGCKYLLEQKGQEYINNIHLTHSLEECLVRTTEKTPSLTRRIDDTIFQNPMVQEAIRMGFSFKDIKKIMEEKIQISGSNYKSLEVLVADLVNAQKDSMQDESSQTSTKADIEQLPSYRFNPNNHQSEQTLCVVCMCDFESRQLLRVLPCNHEFHAKCVDKWLKANRTCPICRADASEVHRDSE
notes: XIAP (BIRC4) residues 145-430 with the substrate-recruiting BIR2 and BIR3 domains; RNF38 RING domain, residue 389 to the C terminus; no linker between the two parts is told; also called XIAP-RNF38; XIAP-RNF38^WT; source: E. coli BL21 (DE3) Rosetta 2 pLysS, purified
